Results: the supplement of paper PMC7877785
± gives the uncertainty stated by the source.

Assay: self-splicing fitness, log relative to wild type (ln ratio); higher = more splicing; Tetrahymena group I intron in knt gene, E. coli kanamycin selection, DiMSum; sequences stand for … in CUCUCU…GGAGGGAAAAGUUAUCAGGCAUGCACCUGGUAGCUAGUCUUUAAACCAAUAGAUUGCAUCGGUUUAAAAGGCAAGACCGUCAAAUUGCGGGAAAGGGGUCAACAGCCGUUCAGUACCAAGUCUCAGGGGAAACUUUGAGAUGGCCUUGCAAAGGGUAUGGUAAUAAGCUGACGGACAUGGUCCUAACCACGCAGCCAAGUCCUAAGUCAACAGAUCUUCUGUUGAUAUGGAUGCAGUUCACAGACUAAAUGUCGGUCGGGGAAGAUGUAUUCUUCUCAUAAGAUAUAGUCGGACCUCUCCUUAAUGGGAGCUAGCGGAUGAAGUGAUGCAACACUGGAGCCGCUGGGAACUAAUUUGUAUGCGAAAGUAUAUUGAUUAGUUUUGGAGUACUCGUGGUCG
Procedure, shortened: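 Colonies from six replicate transformations of E. coli BL21(DE3) were pooled and amplicon-sequenced on an Illumina HiSeq 2500. The library placed an intron with all eight P1ex-region nucleotides randomised inside the knt kanamycin-resistance gene on pET-22b(+), and cells grew overnight at 37°C or 30°C on LB agar with or without 25 μg/mL kanamycin (plus 100 μg/mL carbenicillin, 50 μM IPTG, 0.2% rhamnose). Fitness is the DiMSum error-weighted combination of wild-type-normalised replicate fold changes, kanamycin versus none.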

Sequence	self-splicing fitness (ln) (30 °C)	self-splicing fitness (ln) (37 °C)
CUCCAGCAAUAUUACGGAUU	-2.59 ± 0.26	-2.07 ± 0.18
UCGGAGCAAUAUUACGACCG	-2.42 ± 0.45	–
CUUUAGCAAUAUUACGGUGG	-1.96 ± 0.1	-0.665 ± 0.11
UUAAAGCAAUAUUACGCGGA	-0.811 ± 0.097	0.458 ± 0.1
UUCAAGCAAUAUUACGUUUA	-1.49 ± 0.087	-0.461 ± 0.082
GCAUAGCAAUAUUACGUCCG	-1.44 ± 0.081	-0.899 ± 0.13
GUCCAGCAAUAUUACGUAUC	-0.611 ± 0.096	-0.264 ± 0.11
CGUGAGCAAUAUUACGGGUC	-4 ± 0.24	-2.2 ± 0.19
UGCCAGCAAUAUUACGUCGU	-2.68 ± 0.14	-1.9 ± 0.15
UAUCAGCAAUAUUACGACGC	-2.09 ± 0.13	-0.508 ± 0.13
CGGGAGCAAUAUUACGAAUG	-3.6 ± 0.21	-1.1 ± 0.15
ACCUAGCAAUAUUACGCACG	-0.85 ± 0.099	0.0662 ± 0.12
ACUGAGCAAUAUUACGUGUU	-4.1 ± 0.15	-2.25 ± 0.11
CAAGAGCAAUAUUACGCGCA	-3.48 ± 0.37	-2.09 ± 0.25
UAACAGCAAUAUUACGCGGG	-2.44 ± 0.1	-1.18 ± 0.078
GUCGAGCAAUAUUACGCGUC	-1.43 ± 0.15	-2.49 ± 0.2
AAAGAGCAAUAUUACGAGGC	-3.57 ± 0.24	-2.74 ± 0.28
CCGCAGCAAUAUUACGCCUA	-3.92 ± 0.31	-3.58 ± 0.3
UAUCAGCAAUAUUACGCCAG	-0.548 ± 0.15	-0.584 ± 0.18
UCCCAGCAAUAUUACGAUGU	-2.1 ± 0.088	-1.2 ± 0.12
GAAUAGCAAUAUUACGUGAG	-1.19 ± 0.057	-0.737 ± 0.1
AAUGAGCAAUAUUACGGUAG	-4.54 ± 0.32	-3.47 ± 0.24
AGGUAGCAAUAUUACGAUGU	-0.919 ± 0.013	-0.474 ± 0.033
GCGUAGCAAUAUUACGGGGC	-3.47 ± 0.21	-2.67 ± 0.24

Sequence	self-splicing fitness (ln) (30 °C)	self-splicing fitness (ln) (37 °C)
CGGGAGCAAUAUUACGUUUU	-2.19 ± 0.18	-1.53 ± 0.27
CACGAGCAAUAUUACGACUA	-2.71 ± 0.21	-1.85 ± 0.15
UACAAGCAAUAUUACGAACG	-0.239 ± 0.065	-0.0708 ± 0.08
CGUGAGCAAUAUUACGCGCA	-0.962 ± 0.38	-0.382 ± 0.27
UAGCAGCAAUAUUACGAGAC	-1.84 ± 0.24	-3.06 ± 0.32
GUAUAGCAAUAUUACGUCAA	-2.37 ± 0.37	-2.86 ± 0.32
AAAUAGCAAUAUUACGCCAC	-3.22 ± 0.36	-2.18 ± 0.5
GGAAAGCAAUAUUACGACUG	-1.93 ± 0.15	-0.134 ± 0.19
GUCAAGCAAUAUUACGCCUU	-1.61 ± 0.068	-0.671 ± 0.097
GUGCAGCAAUAUUACGGUGU	-3.08 ± 0.11	-1.74 ± 0.12
CGAUAGCAAUAUUACGACUG	-0.203 ± 0.083	0.803 ± 0.1
UCGAAGCAAUAUUACGCCGU	-0.599 ± 0.12	-0.739 ± 0.12
CUUGAGCAAUAUUACGCCUU	–	-2.47 ± 0.37
GAGUAGCAAUAUUACGAUUA	-0.577 ± 0.092	-0.317 ± 0.081
GCUAAGCAAUAUUACGUCUA	-0.793 ± 0.095	-0.911 ± 0.12
CAGGAGCAAUAUUACGAUAU	-1.88 ± 0.17	-2.37 ± 0.35
GUCCAGCAAUAUUACGGAGC	-2.17 ± 0.087	-2.68 ± 0.088
UUUCAGCAAUAUUACGCUUC	-0.771 ± 0.21	-2.33 ± 0.38
GGCAAGCAAUAUUACGGAAA	-1.55 ± 0.12	-1.27 ± 0.13
CUCGAGCAAUAUUACGUUGU	-4.17 ± 0.18	-2.07 ± 0.14
CACCAGCAAUAUUACGACCC	-3.82 ± 0.25	-2.98 ± 0.28
CCGGAGCAAUAUUACGAGUU	-3.65 ± 0.2	-2.76 ± 0.29
UGUUAGCAAUAUUACGCCGA	-1.18 ± 0.17	-1.21 ± 0.15
CUCGAGCAAUAUUACGACAU	-3.527 ± 0.027	-2.07 ± 0.038
